In the supplement of paper PMC7125110:
± gives the standard error. This sample holds only a part of the variants without activity.

B1: glmS ribozyme (parent)
chain: AUAAAAGCGCCAGAACUACAGAAAUGUAGUUGACGAGGAGGAGGUUUAUCGAAUUUUCGGCGGAUGCCUCCAAA

Legend:
Conditions in all cases: with glucosamine-6-phosphate
glucosamine-6-phosphate [1] = variants of: B1; assay: self-cleavage kobs at 40 uM GlcN6P; higher = faster cleavage; RNA array
In short: (§1)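 Barcoded ribozyme variants, transcribed in situ by E. coli RNA polymerase on sequenced MiSeq chips, were followed via a hybridised Cy3 probe at 37 °C. Glucosamine-6-phosphate ranged from 40 μM to 10 mM in HEPES/KCl/Mg(OAc)2 buffer. kobs came from decay fits to per-tile medians, and kcat and KM from weighted Michaelis–Menten fits.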

glucosamine-6-phosphate [2] = variants of: B1; assay: self-cleavage kobs at 10000 uM GlcN6P; higher = faster cleavage; RNA array
In short: as §1

glucosamine-6-phosphate [3] = variants of: B1; assay: self-cleavage kobs at 160 uM GlcN6P; higher = faster cleavage; RNA array
In short: as §1

glucosamine-6-phosphate [4] = variants of: B1; assay: self-cleavage kobs at 640 uM GlcN6P; higher = faster cleavage; RNA array
In short: as §1

glucosamine-6-phosphate [5] = variants of: B1; assay: self-cleavage kobs at 2500 uM GlcN6P; higher = faster cleavage; RNA array
In short: as §1

Variant	self-cleavage kobs at 40 uM GlcN6P (glucosamine-6-phosphate [1]) [s⁻¹]	self-cleavage kobs at 10000 uM GlcN6P (glucosamine-6-phosphate [2]) [s⁻¹]	self-cleavage kobs at 160 uM GlcN6P (glucosamine-6-phosphate [3]) [s⁻¹]	self-cleavage kobs at 640 uM GlcN6P (glucosamine-6-phosphate [4]) [s⁻¹]	self-cleavage kobs at 2500 uM GlcN6P (glucosamine-6-phosphate [5]) [s⁻¹]
A12C U30G G32U A33C C58U	< 1e-05	< 1e-05			
A12U C70A	8.79e-05 ± 1.1e-05	0.00179 ± 0.00036	0.000177 ± 2.9e-05	0.00047 ± 5.2e-05	0.00049 ± 7e-05
G13U A36G G62U G66U C70A	< 1e-05				
C10U G37A G44A U57C	< 1e-05				
A12C U31A G32C C34A U47A C71U	< 1e-05	< 1e-05			
A12C U49A	< 1e-05		< 1e-05		
A12C C50U U54G	< 1e-05				
C10U U54A C70A	< 1e-05				
C10U G37C A42C	< 1e-05	< 1e-05			< 1e-05
C10U G13A C68A	< 1e-05				
C11U A33G G37U C71A	< 1e-05	< 1e-05			
G13C U30G U54G G63U C67U	< 1e-05	< 1e-05			
A12U G13U G43A	< 1e-05	< 1e-05			
C11U G43C	< 1e-05		< 1e-05	< 1e-05	< 1e-05
C11U A52C	< 1e-05	< 1e-05		< 1e-05	< 1e-05
C11U C16U	6.96e-05 ± 2e-05	0.00196 ± 0.0007	8.34e-05 ± 2.3e-05	0.000352 ± 9.4e-05	0.00134 ± 0.00058
C11G G59C	5.21e-05 ± 2.3e-05	0.000764 ± 0.00016			
C11G C68A	< 1e-05				
G13A A42G A48U	< 1e-05	< 1e-05			
C11U G35C	< 1e-05				
C11U G35A	< 1e-05	< 1e-05	< 1e-05	< 1e-05	< 1e-05
C10U G43C C50U C70U	< 1e-05	< 1e-05			< 1e-05
C11U G32C A36G G62A C71G	< 1e-05			< 1e-05	
G13A G37U A39G G41C A42C G43A	< 1e-05	< 1e-05			
C11A U45G	< 1e-05		< 1e-05	< 1e-05	
C10U U45A C50U G66A	< 1e-05	< 1e-05			
A12U A14G C68U	0.000526 ± 0.0001				
